Results: the supplement of paper PMC5998384

How the values were obtained:
HeLa Kyoto [1] = assay: solubility change mitosis vs G1/S (difference of NP-40 vs SDS log2 ratios) (log2 ratio difference); higher = more soluble in mitosis
HeLa Kyoto [2] = assay: solubility in G1/S (NP-40 vs SDS abundance) (log2 ratio); higher = more soluble; conditions: cell cycle stage: G1/S
HeLa Kyoto [3] = assay: melting temperature (median over replicates), in situ; higher = more thermally stable
HeLa Kyoto [4] = assay: thermal stability score vs G1/S (z-score of summed log2 fold changes over temperatures); higher = more thermally stable than in G1/S
[5] = cell cycle stage: early G1 (4.5 h after nocodazole release)
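Wherever melting temperature (median over replicates), in situ is given: HeLa Kyoto cells synchronized by double thymidine or nocodazole block, proteins quantified by TMT10plex mass spectrometry, three independent biological replicates.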
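Wherever solubility change mitosis vs G1/S (difference of NP-40 vs SDS log2 ratios) is given: synchronized HeLa Kyoto cells (double thymidine block for G1/S, nocodazole release for mitosis), protein amounts in NP-40 versus SDS lysates quantified by mass spectrometry, three biological replicates.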
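Wherever solubility in G1/S (NP-40 vs SDS abundance) is given: HeLa Kyoto cells arrested at G1/S by double thymidine block, proteins quantified by TMT10plex mass spectrometry in mild NP-40 versus SDS extracts, three biological replicates.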
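Wherever thermal stability score vs G1/S (z-score of summed log2 fold changes over temperatures) is given: synchronized HeLa Kyoto cells, proteins quantified by TMT10plex mass spectrometry, three biological replicates, mitosis taken 0.5 h after nocodazole release, G1/S directly after double thymidine block.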

Chain of TANC1 (chain, as listed by the source): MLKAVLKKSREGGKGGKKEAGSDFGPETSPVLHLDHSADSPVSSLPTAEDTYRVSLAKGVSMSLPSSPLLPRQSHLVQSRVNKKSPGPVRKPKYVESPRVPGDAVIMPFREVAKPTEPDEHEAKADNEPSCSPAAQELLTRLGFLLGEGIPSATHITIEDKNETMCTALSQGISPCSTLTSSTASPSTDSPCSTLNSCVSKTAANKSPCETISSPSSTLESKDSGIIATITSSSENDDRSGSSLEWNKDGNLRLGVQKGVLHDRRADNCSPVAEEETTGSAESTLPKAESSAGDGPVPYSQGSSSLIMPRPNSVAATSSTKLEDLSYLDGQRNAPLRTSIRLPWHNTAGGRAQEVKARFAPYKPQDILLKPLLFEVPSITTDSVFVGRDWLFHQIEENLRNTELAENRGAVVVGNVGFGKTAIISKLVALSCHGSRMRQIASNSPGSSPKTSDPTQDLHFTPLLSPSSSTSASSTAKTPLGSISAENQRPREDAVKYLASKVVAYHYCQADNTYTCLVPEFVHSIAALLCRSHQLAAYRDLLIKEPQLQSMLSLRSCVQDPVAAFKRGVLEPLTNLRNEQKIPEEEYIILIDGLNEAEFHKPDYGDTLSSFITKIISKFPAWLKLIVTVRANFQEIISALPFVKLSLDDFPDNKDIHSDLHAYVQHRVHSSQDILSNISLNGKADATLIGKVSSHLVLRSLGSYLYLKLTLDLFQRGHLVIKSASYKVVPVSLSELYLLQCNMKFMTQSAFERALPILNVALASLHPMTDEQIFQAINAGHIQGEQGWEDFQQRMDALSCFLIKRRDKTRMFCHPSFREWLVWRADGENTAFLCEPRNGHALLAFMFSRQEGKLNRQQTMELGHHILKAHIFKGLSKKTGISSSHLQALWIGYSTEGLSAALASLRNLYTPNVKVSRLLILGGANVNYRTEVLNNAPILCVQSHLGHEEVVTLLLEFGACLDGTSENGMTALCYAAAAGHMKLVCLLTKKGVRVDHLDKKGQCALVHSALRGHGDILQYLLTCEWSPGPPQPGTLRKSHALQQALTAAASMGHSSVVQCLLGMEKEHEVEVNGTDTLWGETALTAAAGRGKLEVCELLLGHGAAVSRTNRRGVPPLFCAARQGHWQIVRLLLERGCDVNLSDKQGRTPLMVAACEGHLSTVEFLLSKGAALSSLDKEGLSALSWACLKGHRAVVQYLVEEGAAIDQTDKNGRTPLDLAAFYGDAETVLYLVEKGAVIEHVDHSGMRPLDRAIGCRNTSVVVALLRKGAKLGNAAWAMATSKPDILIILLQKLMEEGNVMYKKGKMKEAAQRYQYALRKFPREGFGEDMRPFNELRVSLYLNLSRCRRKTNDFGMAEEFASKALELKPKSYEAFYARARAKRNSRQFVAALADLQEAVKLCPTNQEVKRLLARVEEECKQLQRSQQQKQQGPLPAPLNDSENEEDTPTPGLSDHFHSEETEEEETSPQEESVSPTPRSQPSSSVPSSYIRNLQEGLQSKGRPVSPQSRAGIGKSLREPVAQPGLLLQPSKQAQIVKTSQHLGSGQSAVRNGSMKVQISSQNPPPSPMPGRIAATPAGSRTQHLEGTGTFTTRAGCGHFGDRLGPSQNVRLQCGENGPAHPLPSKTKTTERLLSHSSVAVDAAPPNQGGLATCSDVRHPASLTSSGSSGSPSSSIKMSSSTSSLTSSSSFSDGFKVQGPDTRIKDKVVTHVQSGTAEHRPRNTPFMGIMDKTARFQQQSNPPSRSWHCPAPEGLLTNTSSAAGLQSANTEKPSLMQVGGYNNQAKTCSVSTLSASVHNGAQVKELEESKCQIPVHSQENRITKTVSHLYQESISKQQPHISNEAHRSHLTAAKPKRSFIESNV
Chain of PDCD10 (chain, as listed by the source): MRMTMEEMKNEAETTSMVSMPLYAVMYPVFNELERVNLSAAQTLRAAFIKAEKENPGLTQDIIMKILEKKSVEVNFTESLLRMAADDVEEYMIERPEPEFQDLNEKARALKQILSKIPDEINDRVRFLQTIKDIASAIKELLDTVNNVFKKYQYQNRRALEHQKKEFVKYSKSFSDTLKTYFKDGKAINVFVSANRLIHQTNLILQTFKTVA

Substance | solubility change mitosis (log2) (HeLa Kyoto [1]) | solubility in G1/S (log2) (HeLa Kyoto [2]) | melting temperature (HeLa Kyoto [3]; cell cycle stage: G1/S) | melting temperature (HeLa Kyoto [3]; cell cycle stage: mitosis) | thermal stability score (HeLa Kyoto [4]; [5]) | thermal stability score (HeLa Kyoto [4]; cell cycle stage: mitosis)
MSLAFKIFFPQTLRALSRKELCLFRKHHWRDVRQFSQWSETDLLHGHPLFLRRKPVLSFQGSHLRSRATYLVFLPGLHVGLCSGPCEMAEQRFCVDYAKRGTAGCKKCKEKIVKGVCRIGKVVPNPFSESGGDMKEWYHIKCMFEKLERARATTKKIEDLTELEGWEELEDNEKEQITQHIADLSSKAAGTPKKKAVVQAKLTTTGQVTSPVKGASFVTSTNPRKFSGFSAKPNNSGEAPSSPTPKRSLSSSKCDPRHKDCLLREFRKLCAMVADNPSYNTKTQIIQDFLRKGSAGDGFHGDVYLTVKLLLPGVIKTVYNLNDKQIVKLFSRIFNCNPDDMARDLEQGDVSETIRVFFEQSKSFPPAAKSLLTIQEVDEFLLRLSKLTKEDEQQQALQDIASRCTANDLKCIIRLIKHDLKMNSGAKHVLDALDPNAYEAFKASRNLQDVVERVLHNAQEVEKEPGQRRALSVQASLMTPVQPMLAEACKSVEYAMKKCPNGMFSEIKYDGERVQVHKNGDHFSYFSRSLKPVLPHKVAHFKDYIPQAFPGGHSMILDSEVLLIDNKTGKPLPFGTLGVHKKAAFQDANVCLFVFDCIYFNDVSLMDRPLCERRKFLHDNMVEIPNRIMFSEMKRVTKALDLADMITRVIQEGLEGLVLKDVKGTYEPGKRHWLKVKKDYLNEGAMADTADLVVLGAFYGQGSKGGMMSIFLMGCYDPGSQKWCTVTKCAGGHDDATLARLQNELDMVKISKDPSKIPSWLKVNKIYYPDFIVPDPKKAAVWEITGAEFSKSEAHTADGISIRFPRCTRIRDDKDWKSATNLPQLKELYQLSKEKADFTVVAGDEGSSTTGGSSEENKGPSGSAVSRKAPSKPSASTKKAEGKLSNSNSKDGNMQTAKPSAMKVGEKLATKSSPVKVGEKRKAADETLCQTKVLLDIFTGVRLYLPPSTPDFSRLRRYFVAFDGDLVQEFDMTSATHVLGSRDKNPAAQQVSPEWIWACIRKRRLVAPC [LIG3] | 0.0705 | -0.13 | 46.3 °C | 48.8 °C | 0.91 | 2.49
MEDSEALGFEHMGLDPRLLQAVTDLGWSRPTLIQEKAIPLALEGKDLLARARTGSGKTAAYAIPMLQLLLHRKATGPVVEQAVRGLVLVPTKELARQAQSMIQQLATYCARDVRVANVSAAEDSVSQRAVLMEKPDVVVGTPSRILSHLQQDSLKLRDSLELLVVDEADLLFSFGFEEELKSLLCHLPRIYQAFLMSATFNEDVQALKELILHNPVTLKLQESQLPGPDQLQQFQVVCETEEDKFLLLYALLKLSLIRGKSLLFVNTLERSYRLRLFLEQFSIPTCVLNGELPLRSRCHIISQFNQGFYDCVIATDAEVLGAPVKGKRRGRGPKGDKASDPEAGVARGIDFHHVSAVLNFDLPPTPEAYIHRAGRTARANNPGIVLTFVLPTEQFHLGKIEELLSGENRGPILLPYQFRMEEIEGFRYRCRDAMRSVTKQAIREARLKEIKEELLHSEKLKTYFEDNPRDLQLLRHDLPLHPAVVKPHLGHVPDYLVPPALRGLVRPHKKRKKLSSSCRKAKRAKSQNPLRSFKHKGKKFRPTAKPS [DDX56] | 0.785 | -1.13 | 51.8 °C | 52 °C | 0.609 | 0.497
MPRVYIGRLSYQARERDVERFFKGYGKILEVDLKNGYGFVEFDDLRDADDAVYELNGKDLCGERVIVEHARGPRRDGSYGSGRSGYGYRRSGRDKYGPPTRTEYRLIVENLSSRCSWQDLKDYMRQAGEVTYADAHKGRKNEGVIEFVSYSDMKRALEKLDGTEVNGRKIRLVEDKPGSRRRRSYSRSRSHSRSRSRSRHSRKSRSRSGSSKSSHSKSRSRSRSGSRSRSKSRSRSQSRSRSKKEKSRSPSKEKSRSRSHSAGKSRSKSKDQAEEKIQNNDNVGKPKSRSPSRHKSKSKSRSRSQERRVEEEKRGSVSRGRSQEKSLRQSRSRSRSKGGSRSRSRSRSKSKDKRKGRKRSREESRSRSRSRSKSERSRKRGSKRDSKAGSSKKKKKEDTDRSQSRSPSRSVSKEREHAKSESSQREGRGESENAGTNQETRSRSRSNSKSKPNLPSESRSRSKSASKTRSRSKSRSRSASRSPSRSRSRSHSRS [SRSF4] | 0.361 | -0.671 | 50.7 °C | 50.2 °C | -1.55 | -1
MIPNGYLMFEDENFIESSVAKLNALRKSGQFCDVRLQVCGHEMLAHRAVLACCSPYLFEIFNSDSDPHGISHVKFDDLNPEAVEVLLNYAYTAQLKADKELVKDVYSAAKKLKMDRVKQVCGDYLLSRMDVTSCISYRNFASCMGDSRLLNKVDAYIQEHLLQISEEEEFLKLPRLKLEVMLEDNVCLPSNGKLYTKVINWVQRSIWENGDSLEELMEEVQTLYYSADHKLLDGNLLDGQAEVFGSDDDHIQFVQKKPPRENGHKQISSSSTGCLSSPNATVQSPKHEWKIVASEKTSNNTYLCLAVLDGIFCVIFLHGRNSPQSSPTSTPKLSKSLSFEMQQDELIEKPMSPMQYARSGLGTAEMNGKLIAAGGYNREECLRTVECYNPHTDHWSFLAPMRTPRARFQMAVLMGQLYVVGGSNGHSDDLSCGEMYDSNIDDWIPVPELRTNRCNAGVCALNGKLYIVGGSDPYGQKGLKNCDVFDPVTKLWTSCAPLNIRRHQSAVCELGGYLYIIGGAESWNCLNTVERYNPENNTWTLIAPMNVARRGAGVAVLNGKLFVCGGFDGSHAISCVEMYDPTRNEWKMMGNMTSPRSNAGIATVGNTIYAVGGFDGNEFLNTVEVYNLESNEWSPYTKIFQF [IVNS1ABP] | -0.0597 | -0.0792 | 50.7 °C | 49.2 °C | -2.78 | -1.82
MAEVKVKVQPPDADPVEIENRIIELCHQFPHGITDQVIQNEMPHIEAQQRAVAINRLLSMGQLDLLRSNTGLLYRIKDSQNAGKMKGSDNQEKLVYQIIEDAGNKGIWSRDIRYKSNLPLTEINKILKNLESKKLIKAVKSVAASKKKVYMLYNLQPDRSVTGGAWYSDQDFESEFVEVLNQQCFKFLQSKAETARESKQNPMIQRNSSFASSHEVWKYICELGISKVELSMEDIETILNTLIYDGKVEMTIIAAKEGTVGSVDGHMKLYRAVNPIIPPTGLVRAPCGLCPVFDDCHEGGEISPSNCIYMTEWLEF [POLR3F] | -0.0255 | 0.528 | 52.4 °C | 52.7 °C | -0.67 | -1.78
MARNAEKAMTALARFRQAQLEEGKVKERRPFLASECTELPKAEKWRRQIIGEISKKVAQIQNAGLGEFRIRDLNDEINKLLREKGHWEVRIKELGGPDYGKVGPKMLDHEGKEVPGNRGYKYFGAAKDLPGVRELFEKEPLPPPRKTRAELMKAIDFEYYGYLDEDDGVIVPLEQEYEKKLRAELVEKWKAEREARLARGEKEEEEEEEEEINIYAVTEEESDEEGSQEKGGDDSQQKFIAHVPVPSQQEIEEALVRRKKMELLQKYASETLQAQSEEARRLLGY [ISY1] | 0.254 | 0.128 | 46.7 °C | 51.2 °C | -2.75 | -1.6
MPVDLSKWSGPLSLQEVDEQPQHPLHVTYAGAAVDELGKVLTPTQVKNRPTSISWDGLDSGKLYTLVLTDPDAPSRKDPKYREWHHFLVVNMKGNDISSGTVLSDYVGSGPPKGTGLHRYVWLVYEQDRPLKCDEPILSNRSGDHRGKFKVASFRKKYELRAPVAGTCYQAEWDDYVPKLYEQLSGK [PEBP1] | 0.21 | 0.607 | 56.9 °C | 57.3 °C | -0.593 | -3.2
MAAVLNAERLEVSVDGLTLSPDPEERPGAEGAPLLPPPLPPPSPPGSGRGPGASGEQPEPGEAAAGGAAEEARRLEQRWGFGLEELYGLALRFFKEKDGKAFHPTYEEKLKLVALHKQVLMGPYNPDTCPEVGFFDVLGNDRRREWAALGNMSKEDAMVEFVKLLNRCCHLFSTYVASHKIEKEEQEKKRKEEEERRRREEEERERLQKEEEKRRREEEERLRREEEERRRIEEERLRLEQQKQQIMAALNSQTAVQFQQYAAQQYPGNYEQQQILIRQLQEQHYQQYMQQLYQVQLAQQQAALQKQQEVVVAGSSLPTSSKVNATVPSNMMSVNGQAKTHTDSSEKELEPEAAEEALENGPKESLPVIAAPSMWTRPQIKDFKEKIQQDADSVITVGRGEVVTVRVPTHEEGSYLFWEFATDNYDIGFGVYFEWTDSPNTAVSVHVSESSDDDEEEEENIGCEEKAKKNANKPLLDEIVPVYRRDCHEEVYAGSHQYPGRGVYLLKFDNSYSLWRSKSVYYRVYYTR [ACBD3] | -0.137 | -0.138 | 50.4 °C | 50.2 °C | -1.26 | -0.756
MLLAVLLLLPLPSSWFAHGHPLYTRLPPSALQVLSAQGTQALQAAQRSAQWAINRVAMEIQHRSHECRGSGRPRPQALLQDPPEPGPCGERRPSTANVTRAHGRIVGGSAAPPGAWPWLVRLQLGGQPLCGGVLVAASWVLTAAHCFVGAPNELLWTVTLAEGSRGEQAEEVPVNRILPHPKFDPRTFHNDLALVQLWTPVSPGGSARPVCLPQEPQEPPAGTACAIAGWGALFEDGPEAEAVREARVPLLSTDTCRRALGPGLRPSTMLCAGYLAGGVDSCQGDSGGPLTCSEPGPRPREVLFGVTSWGDGCGEPGKPGVYTRVAVFKDWLQEQMSASSSREPSCRELLAWDPPQELQADAARLCAFYARLCPGSQGACARLAHQQCLQRRRRCELRSLAHTLLGLLRNAQELLGPRPGLRRLAPALALPAPALRESPLHPARELRLHSGSRAAGTRFPKRRPEPRGEANGCPGLEPLRQKLAALQGAHAWILQVPSEHLAMNFHEVLADLGSKTLTGLFRAWVRAGLGGRHVAFSGLVGLEPATLARSLPRLLVQALQAFRVAALAEGEPEGPWMDVGQGPGLERKGHHPLNPQVPPARQP [PRSS56] | -0.116 | 0.296 | 53.2 °C | 53.3 °C | 1.67 | 3.49
PDCD10 | -0.0258 | 0.326 | 49.2 °C | 50.7 °C | 1.11 | 1.24
TANC1 | -0.166 | -0.0445 | 50.1 °C | 50.7 °C | -0.0485 | 0.875
MATASPAADGGRGRPWEGGLVSWPPAPPLTLPWTWMGPSWGQHPGHWGFPALTEPSASPAAGLGIFEVRRVLDASGCSMLAPLQTGAARFSSYLLSRARKVLGSHLFSPCGVPEFCSISTRKLAAHGFGASMAAMVSFPPQRYHYFLVLDFEATCDKPQIHPQEIIEFPILKLNGRTMEIESTFHMYVQPVVHPQLTPFCTELTGIIQAMVDGQPSLQQVLERVDEWMAKEGLLDPNVKSIFVTCGDWDLKVMLPGQCQYLGLPVADYFKQWINLKKAYSFAMGCWPKNGLLDMNKGLSLQHIGRPHSGIDDCKNIANIMKTLAYRGFIFKQTSKPF [ERI3] | -0.0837 | 0.0291 | – | 54.7 °C | 0.384 | -0.0416
MASILRSPQALQLTLALIKPDAVAHPLILEAVHQQILSNKFLIVRMRELLWRKEDCQRFYREHEGRFFYQRLVEFMASGPIRAYILAHKDAIQLWRTLMGPTRVFRARHVAPDSIRGSFGLTDTRNTTHGSDSVVSASREIAAFFPDFSEQRWYEEEEPQLRCGPVCYSPEGGVHYVAGTGGLGPA [NME6] | 0.636 | 0.31 | 51.3 °C | 55.2 °C | -2.16 | -1.08
